Measurements taken from patent US20220089722A1 (NANTONG YICHEN BIOPHARMA, published 2022).

B1: IgFD-30(anti-CD3/EGFR) (bispecific antibody, human IgG1, kappa)
chain 1: EVQLVESGGGLVQPGGSLRLSCAASGFTFNTYAMNWVRQAPGKGLEWVARIRSKYNNYATYYADSVKDRFTISRDDSKNTLYLQMNSLRAEDTAVYYCVRHGNFGNSYVSWFAYWGQGTLVTVSSASTKGPSVFPLAPSSKSTSGGTAALGCLVKDYFPEPVTVSWNSGALTSGVHTFPAVLQSSGLYSLSSVVTVPSSSLGTQTYICNVNHKPSNTKVDKKVEPKSCDKTHTCPPCPAPPVAGPSVFLFPPKPKDTLMISRTPEVTCVVVDVSHEDPEVKFNWYVDGVEVHNAKTKPREEQYNSTYRVVSVLTVLHQDWLNGKEYKCKVSNKGLPSSIEKTISKAKGQPREPQVYTLPPCRDELTKNQVSLWCLVKGFYPSDIAVEWESNGQPENNYKTTPPVLDSDGSFFLYSKLTVDKSRWQQGNVFSCSVMHEALHNHYTQKSLSLSPGKGGSGGSGGGGSGGGGSDIQMTQSPSSLSASVGDRVTITCQASQDISNYLNWYQQKPGKAPKLLIYDASNLETGVPSRFSGSGSGTDFTFTISSLQPEDIATYFCQHFDHLPLAFGGGTKVEIK
chain 2: QAVVTQEPSLTVSPGGTVTLTCRSSTGAVTTSNYANWVQQKPDHLFRGLIGGTNKRAPGTPARFSGSLLGDKAALTISGAQPEDEAEYYCALWYSNLWVFGGGTKLTVLKRTVAAPSVFIFPPSDEQLKSGTASVVCLLNNFYPREAKVQWKVDNALQSGNSQESVTEQDSKDSTYSLSSTLTLSKADYEKHKVYACEVTHQGLSSPVTKSFNRGECDKTHTCPPCPAPPVAGPSVFLFPPKPKDTLMISRTPEVTCVVVDVSHEDPEVKFNWYVDGVEVHNAKTKPREEQYNSTYRVVSVLTVLHQDWLNGKEYKCKVSNKGLPSSIEKTISKAKGQPREPQVCTLPPSRDELTKNQVSLSCAVKGFYPSDIAVEWESNGQPENNYKTTPPVLDSDGSFFLVSKLTVDKSRWQQGNVFSCSVMHEALHNHYTQKSLSLSPGKGGSGGSGGGGSGGGGSQVQLQESGPGLVKPSETLSLTCTVSGGSVSSGDYYWTWIRQSPGKGLEWIGHIYYSGNTNYNPSLKSRLTISIDTSKTQFSLKLSSVTAADTAIYYCVRDRVTGAFDIWGQGTMVTVSS
notes: (ProA)/(CH1) = purification resin; also called IgFD-30(ProA); IgFD-30(CH1)
B2: IgFD-26(anti-CD3/EGFR) (bispecific antibody, human IgG1, kappa, N297A)
chain 1: not shown
chain 2: QAVVTQEPSLTVSPGGTVTLTCRSSTGAVTTSNYANWVQQKPDHLFRGLIGGTNKRAPGTPARFSGSLLGDKAALTISGAQPEDEAEYYCALWYSNLWVFGGGTKLTVLKRTVAAPSVFIFPPSDEQLKSGTASVVCLLNNFYPREAKVQWKVDNALQSGNSQESVTEQDSKDSTYSLSSTLTLSKADYEKHKVYACEVTHQGLSSPVTKSFNRGECDKTHTCPPCPAPELLGGPSVFLFPPKPKDTLMISRTPEVTCVVVDVSHEDPEVKFNWYVDGVEVHNAKTKPREEQYASTYRVVSVLTVLHQDWLNGKEYKCKVSNKALPAPIEKTISKAKGQPREPQVCTLPPSREEMTKNQVSLSCAVKGFYPSDIAVEWESNGQPENNYKTTPPVLDSDGSFFLVSKLTVDKSRWQQGNVFSCSVMHEALHNHYTQKSLSLSPGKGGSGGSGGGGSGGGGSDIQMTQSPSSLSASVGDRVTITCQASQDISNYLNWYQQKPGKAPKLLIYDASNLETGVPSRFSGSGSGTDFTFTISSLQPEDIATYFCQHFDHLPLAFGGGTKVEIKGGGGSGGGGSGGGGSQVQLQESGPGLVKPSETLSLTCTVSGGSVSSGDYYWTWIRQSPGKGLEWIGHIYYSGNTNYNPSLKSRLTISIDTSKTQFSLKLSSVTAADTAIYYCVRDRVTGAFDIWGQGTMVTVSS
B3: IgFD-25(anti-CD3/EGFR) (bispecific antibody, human IgG1, kappa)
chain 1: EVQLVESGGGLVQPGGSLRLSCAASGFTFNTYAMNWVRQAPGKGLEWVARIRSKYNNYATYYADSVKDRFTISRDDSKNTLYLQMNSLRAEDTAVYYCVRHGNFGNSYVSWFAYWGQGTLVTVSSASTKGPSVFPLAPSSKSTSGGTAALGCLVKDYFPEPVTVSWNSGALTSGVHTFPAVLQSSGLYSLSSVVTVPSSSLGTQTYICNVNHKPSNTKVDKKVEPKSCDKTHTCPPCPAPPVAGPSVFLFPPKPKDTLMISRTPEVTCVVVDVSHEDPEVKFNWYVDGVEVHNAKTKPREEQYNSTYRVVSVLTVLHQDWLNGKEYKCKVSNKGLPSSIEKTISKAKGQPREPQVYTLPPCRDELTKNQVSLWCLVKGFYPSDIAVEWESNGQPENNYKTTPPVLDSDGSFFLYSKLTVDKSRWQQGNVFSCSVMHEALHNHYTQKSLSLSPGK
chain 2: QAVVTQEPSLTVSPGGTVTLTCRSSTGAVTTSNYANWVQQKPDHLFRGLIGGTNKRAPGTPARFSGSLLGDKAALTISGAQPEDEAEYYCALWYSNLWVFGGGTKLTVLKRTVAAPSVFIFPPSDEQLKSGTASVVCLLNNFYPREAKVQWKVDNALQSGNSQESVTEQDSKDSTYSLSSTLTLSKADYEKHKVYACEVTHQGLSSPVTKSFNRGECDKTHTCPPCPAPPVAGPSVFLFPPKPKDTLMISRTPEVTCVVVDVSHEDPEVKFNWYVDGVEVHNAKTKPREEQYNSTYRVVSVLTVLHQDWLNGKEYKCKVSNKGLPSSIEKTISKAKGQPREPQVCTLPPSRDELTKNQVSLSCAVKGFYPSDIAVEWESNGQPENNYKTTPPVLDSDGSFFLVSKLTVDKSRWQQGNVFSCSVMHEALHNHYTQKSLSLSPGKGGSGGSGGGGSGGGGSDIQMTQSPSSLSASVGDRVTITCQASQDISNYLNWYQQKPGKAPKLLIYDASNLETGVPSRFSGSGSGTDFTFTISSLQPEDIATYFCQHFDHLPLAFGGGTKVEIKGGGGSGGGGSGGGGSQVQLQESGPGLVKPSETLSLTCTVSGGSVSSGDYYWTWIRQSPGKGLEWIGHIYYSGNTNYNPSLKSRLTISIDTSKTQFSLKLSSVTAADTAIYYCVRDRVTGAFDIWGQGTMVTVSS
B4: IgFD-31(anti-CD3/EGFR) (bispecific antibody)
chain 1: EVQLVESGGGLVQPGGSLRLSCAASGFTFNTYAMNWVRQAPGKGLEWVARIRSKYNNYATYYADSVKDRFTISRDDSKNTLYLQMNSLRAEDTAVYYCVRHGNFGNSYVSWFAYWGQGTLVTVSSASTKGPSVFPLAPSSKSTSGGTAALGCLVKDYFPEPVTVSWNSGALTSGVHTFPAVLQSSGLYSLSSVVTVPSSSLGTQTYICNVNHKPSNTKVDKKVEPKSCGGSGAKLAALKAKLAALKGGGGSDKTHTCPPCPAPPVAGPSVFLFPPKPKDTLMISRTPEVTCVVVDVSHEDPEVKFNWYVDGVEVHNAKTKPREEQYNSTYRVVSVLTVLHQDWLNGKEYKCKVSNKGLPSSIEKTISKAKGQPREPQVYTLPPSRDELTKNQVSLTCLVKGFYPSDIAVEWESNGQPENNYKTTPPVLDSDGSFFLYSKLTVDKSRWQQGNVFSCSVMHEALHNHYTQKSLSLSPGK
chain 2: QAVVTQEPSLTVSPGGTVTLTCRSSTGAVTTSNYANWVQQKPDHLFRGLIGGTNKRAPGTPARFSGSLLGDKAALTISGAQPEDEAEYYCALWYSNLWVFGGGTKLTVLKRTVAAPSVFIFPPSDEQLKSGTASVVCLLNNFYPREAKVQWKVDNALQSGNSQESVTEQDSKDSTYSLSSTLTLSKADYEKHKVYACEVTHQGLSSPVTKSFNRGECGGGGSELAALEAELAALEAGGSGDKTHTCPPCPAPPVAGPSVFLFPPKPKDTLMISRTPEVTCVVVDVSHEDPEVKFNWYVDGVEVHNAKTKPREEQYNSTYRVVSVLTVLHQDWLNGKEYKCKVSNKGLPSSIEKTISKAKGQPREPQVYTLPPSRDELTKNQVSLTCLVKGFYPSDIAVEWESNGQPENNYKTTPPVLDSDGSFFLYSKLTVDKSRWQQGNVFSCSVMHEALHNHYTQKSLSLSPGKGGSGGSGGGGSGGGGSDIQMTQSPSSLSASVGDRVTITCQASQDISNYLNWYQQKPGKAPKLLIYDASNLETGVPSRFSGSGSGTDFTFTISSLQPEDIATYFCQHFDHLPLAFGGGTKVEIKGGGGSGGGGSGGGGSQVQLQESGPGLVKPSETLSLTCTVSGGSVSSGDYYWTWIRQSPGKGLEWIGHIYYSGNTNYNPSLKSRLTISIDTSKTQFSLKLSSVTAADTAIYYCVRDRVTGAFDIWGQGTMVTVSS

Experiments:
[1] = target: T1, CD3 on T cells (Jurkat T cells; PBMC-T cells); assay: flow cytometry on Jurkat T cells; protein purified on Protein A resin
T1 construct: whole, on cells; the target is inferred from the anti-CD3 arm of the constructs

[2] = target: T1, CD3 on T cells (Jurkat T cells; PBMC-T …); assay: flow cytometry on Jurkat T cells; protein purified on CH1 resin
EGFR on F98-EGFR cells [3] = target: T2, EGFR on F98-EGFR cells (UniProt P00533 25-1210, limits assumed); assay: flow cytometry on F98-EGFR cells; protein purified on Protein A resin
T2 construct: whole, on cells

EGFR on F98-EGFR cells [4] = target: T2, EGFR on F98-EGFR cells; assay: cell-based or functional assay
EGFR on F98-EGFR cells [5] = target: T2, EGFR on F98-EGFR cells; assay: flow cytometry on F98-EGFR cells; protein purified on CH1 resin
EGFR on F98-EGFR cells [6] = target: T2, EGFR on F98-EGFR cells; assay: flow cytometry on F98-EGFR cells
Description: F98-EGFR cells (a DMEM containing 10% FBS, 200 μg/ml G418) were cultured. 2×10⁵ cells were washed by precooled PBS for 3 times, and blocked by 2% FBS (soluble to PBS). IgFD-8, IgFD-9, IgFD-10, IgFD-11, IgFD-18, IgFD-19, IgFD-25, IgFD-26 or IgFD-31 (aEGFR expressed in a laboratory as a control) was added and incubated for 2 h at 4° C. (cells were gently mixed during incubation), unbounded antibodies were washed by 2% FBS (soluble to PBS), and then the remaining cells were incubated by FITC anti-human IgGFc(KPL, Inc., MD) for 1 h at 4° C., and washed by 2% FBS (soluble to PBS) for flow cytometry analysis. As shown in FIG. 7 and Table 4, the anti-CD3/anti-EGFR heterodimers in different forms of fusion could bind to EGFR on F98-EGFR cells, and there was no significant difference in the binding capacity of different heterodimers to F98-EGFR.

[7] = target: T1, CD3 on T cells (Jurkat T cells; PBMC-T …); assay: flow cytometry on Jurkat T cells
Description: Jurkat cells (a medium containing 10% FBS) were cultured. 2×10⁵ cells were washed by precooled PBS for 3 times, and blocked by 2% FBS (soluble to PBS). Purified IgFD-11, IgFD-8, IgFD-25, IgFD-26, IgFD-31 or IgFD-36 (aEGFR expressed in a laboratory as a control) were added and incubated for 2 h at 4° C. (cells were gently mixed during incubation), followed by 2% FBS(in PBS) wash. The cells were incubated by FITC anti-human IgGFc (KPL, Inc., MD) for 1 h at 4° C. and subjected to flow cytometry analysis after washing with 2% FBS(in PBS).

T1 sequence (P07766 23-207): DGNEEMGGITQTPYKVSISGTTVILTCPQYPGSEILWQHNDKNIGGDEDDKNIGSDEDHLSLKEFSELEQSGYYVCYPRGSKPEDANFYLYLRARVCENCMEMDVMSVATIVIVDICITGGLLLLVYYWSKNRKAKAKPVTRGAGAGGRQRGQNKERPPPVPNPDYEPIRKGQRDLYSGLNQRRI

Binder | Kd [1] [nM] | Kd [2] [nM] | Kd (EGFR on F98-EGFR cells [3]) [nM] | Promotion for the specific killing effect of PBMCs on target cells by heterodimers (EC50, pM); F98-EGFR cells, LDH assay; IgFD-30(CH1) (EGFR on F98-EGFR cells [4]) [pM] | Promotion for the specific killing effect of PBMCs on target cells by heterodimers (EC50, pM); F98-EGFR cells, LDH assay; IgFD-30(ProA) (EGFR on F98-EGFR cells [4]) [pM] | Kd (EGFR on F98-EGFR cells [5]) [nM] | Promotion for the specific killing effect of PBMCs on target cells by heterodimers (EC50, pM); F98-EGFR cells, LDH assay (EGFR on F98-EGFR cells [4]) [pM] | Kd (EGFR on F98-EGFR cells [6]) [nM] | Kd [7] [nM]
B1 | 6.74 | 7.35 | 131 | 435 | 651 | 86.3 | – | – | –
B2 | – | – | – | – | – | – | 105 | 5.28 | 4.23
B3 | – | – | – | – | – | – | 11 | 1.12 | 7.72
B4 | – | – | – | – | – | – | – | 5.47 | 4.16
